{"source": "the RNAGym collection of RNA variant scans (doi:10.1021/acssynbio.7b00057)", "parents": {"B1": {"name": "Pistol ribozyme (parent)", "chain": "GGGUCGUUGUUCCAUAAUCGCGUGGAUAUGGCACGCAAGUUUCUACCGGGCACCGUAAAUGUCCGACUGGAGCCGUUCGGGCGGCUAUAAACAGACCUCAGGCCCGAAGCGUGGCGGCACCUGCCGCCGGUGGUAAAAAAGAUCGGAAGAGCACACGUCU"}}}
{"variants_of": "B1", "assay": "aptazyme ON/OFF ratio, guanine; higher = stronger switching; co-transcriptional cleavage with and without guanine"}
{"variant": "U7A U8A G9A U10G C12G C13A", "aptazyme ON/OFF ratio": 1.06}
{"variant": "U7A U8A G9A U10G C12G C13G", "aptazyme ON/OFF ratio": 1.11}
{"variant": "U7A U8A G9A U10G C12G C13U", "aptazyme ON/OFF ratio": 1.31}
{"variant": "U7A U8A G9A U10C U11A C12G C13U", "aptazyme ON/OFF ratio": 1.1}
{"variant": "U7A U8A G9A U10C U11A C12G C13A", "aptazyme ON/OFF ratio": 1.08}
{"variant": "U7A U8A G9A U10C U11A C12G C13G", "aptazyme ON/OFF ratio": 1.11}
{"variant": "U7A U8A G9A U11A C13G", "aptazyme ON/OFF ratio": 1.11}
{"variant": "U7A U8A G9A U11A C13U", "aptazyme ON/OFF ratio": 1.19}
{"variant": "U7A U8A G9A U11A C13A", "aptazyme ON/OFF ratio": 1.2}
{"variant": "U7A U8A G9A U10A C12U C13G", "aptazyme ON/OFF ratio": 1.19}
{"variant": "U7A U8A G9A U10A C12U C13U", "aptazyme ON/OFF ratio": 1.47}
{"variant": "U7A U8A G9A U10A C12U C13A", "aptazyme ON/OFF ratio": 1.27}
{"variant": "U7A G9U U10G U11C C12U C13U", "aptazyme ON/OFF ratio": 1.22}
{"variant": "U7A G9U U10G U11C C12U C13A", "aptazyme ON/OFF ratio": 1.29}
{"variant": "U7A G9U U10G U11C C12U C13G", "aptazyme ON/OFF ratio": 1.19}
{"variant": "U7A U8A G9A U11A C12G C13G", "aptazyme ON/OFF ratio": 1.28}
{"variant": "U7A U8A G9A U11A C12G C13U", "aptazyme ON/OFF ratio": 1.25}
{"variant": "U7A U8A G9A U11A C12G C13A", "aptazyme ON/OFF ratio": 1.14}
{"variant": "U7A U8A G9A U10G U11C C12A C13U", "aptazyme ON/OFF ratio": 1.19}
{"variant": "U7A U8A G9A U10G U11C C12A C13G", "aptazyme ON/OFF ratio": 1.14}
{"variant": "U7A U8A G9A U10G U11C C12A C13A", "aptazyme ON/OFF ratio": 1.17}
{"variant": "U7A U8A G9A U10G U11A C13G", "aptazyme ON/OFF ratio": 1.03}
{"variant": "U7A U8A G9A U10G U11A C13U", "aptazyme ON/OFF ratio": 0.974}
{"variant": "U7A U8A G9A U10G U11A C13A", "aptazyme ON/OFF ratio": 1.01}
{"variant": "U7A U8A G9A U10G U11C C12G C13G", "aptazyme ON/OFF ratio": 1.17}
{"variant": "U7A U8A G9A U10G U11C C12G C13A", "aptazyme ON/OFF ratio": 1.24}
{"variant": "U7A U8A G9A U10G U11C C12G C13U", "aptazyme ON/OFF ratio": 1.31}
{"variant": "U7A U8A G9A U10C U11C C13A", "aptazyme ON/OFF ratio": 1.01}
{"variant": "U7A U8A G9A U10C U11C C13G", "aptazyme ON/OFF ratio": 0.997}
{"variant": "U7A U8A G9A U10C U11C C13U", "aptazyme ON/OFF ratio": 1.06}
{"variant": "U7A U8A G9A U11C C12G C13G", "aptazyme ON/OFF ratio": 1.14}
{"variant": "U7A U8A G9A U11C C12G C13U", "aptazyme ON/OFF ratio": 1.09}
{"variant": "U7A U8A G9A U11C C12G C13A", "aptazyme ON/OFF ratio": 1.1}
{"variant": "U7A G9U U11C C12A C13U", "aptazyme ON/OFF ratio": 1.24}
{"variant": "U7A G9U U11C C12A C13A", "aptazyme ON/OFF ratio": 1.24}
{"variant": "U7A G9U U11C C12A C13G", "aptazyme ON/OFF ratio": 1.16}
{"variant": "U7A U8A G9A U10A U11C C12A C13G", "aptazyme ON/OFF ratio": 1.14}
{"variant": "U7A U8A G9A U10A U11C C12A C13U", "aptazyme ON/OFF ratio": 1.24}
{"variant": "U7A U8A G9A U10A U11C C12A C13A", "aptazyme ON/OFF ratio": 1.2}
{"variant": "U7A U8A G9A U10G U11A C12G C13A", "aptazyme ON/OFF ratio": 1.08}
{"variant": "U7A U8A G9A U10G U11A C12G C13U", "aptazyme ON/OFF ratio": 1.33}
{"variant": "U7A U8A G9A U10G U11A C12G C13G", "aptazyme ON/OFF ratio": 1.15}
{"variant": "U7A G9U U11G C12G C13A", "aptazyme ON/OFF ratio": 1.26}
{"variant": "U7A G9U U11G C12G C13G", "aptazyme ON/OFF ratio": 1.32}
{"variant": "U7A G9U U11G C12G C13U", "aptazyme ON/OFF ratio": 1.14}
{"variant": "U7A U8A G9A U10A U11C C12U C13A", "aptazyme ON/OFF ratio": 1.17}
{"variant": "U7A U8A G9A U10A U11C C12U C13G", "aptazyme ON/OFF ratio": 1.08}
{"variant": "U7A U8A G9A U10A U11C C12U C13U", "aptazyme ON/OFF ratio": 1.14}
{"variant": "U7A G9U U11G C12U C13U", "aptazyme ON/OFF ratio": 1.08}
{"variant": "U7A G9U U11G C12U C13G", "aptazyme ON/OFF ratio": 1.3}
{"variant": "U7A G9U U11G C12U C13A", "aptazyme ON/OFF ratio": 1.35}
{"variant": "U7A U8A G9A U10C C13G", "aptazyme ON/OFF ratio": 1.04}
{"variant": "U7A U8A G9A U10C C13A", "aptazyme ON/OFF ratio": 1.13}
{"variant": "U7A U8A G9A U10C C13U", "aptazyme ON/OFF ratio": 1.09}
{"variant": "U7A U8A G9A U10A U11A C13A", "aptazyme ON/OFF ratio": 1.16}
{"variant": "U7A U8A G9A U10A U11A C13U", "aptazyme ON/OFF ratio": 1.3}
{"variant": "U7A U8A G9A U10A U11A C13G", "aptazyme ON/OFF ratio": 1.17}
{"variant": "U7A G9U U11A", "aptazyme ON/OFF ratio": 1.27}
{"variant": "U7A G9U U11C", "aptazyme ON/OFF ratio": 1.15}
{"variant": "U7A G9U U11G", "aptazyme ON/OFF ratio": 1.36}
{"variant": "U7A U8A C12A C13U", "aptazyme ON/OFF ratio": 1.5}
{"variant": "U7A U8A C12A C13A", "aptazyme ON/OFF ratio": 1.22}
{"variant": "U7A U8A C12A C13G", "aptazyme ON/OFF ratio": 1.12}
{"variant": "U7A U8A G9A U10A U11G C12G C13U", "aptazyme ON/OFF ratio": 1.59}
{"variant": "U7A U8A G9A U10A U11G C12G C13A", "aptazyme ON/OFF ratio": 1.25}
{"variant": "U7A U8A G9A U10A U11G C12G C13G", "aptazyme ON/OFF ratio": 1.32}
{"variant": "U7A G9U U10G U11G C12A C13A", "aptazyme ON/OFF ratio": 1.11}
{"variant": "U7A G9U U10G U11G C12A C13G", "aptazyme ON/OFF ratio": 1.12}
{"variant": "U7A G9U U10G U11G C12A C13U", "aptazyme ON/OFF ratio": 1.21}
{"variant": "U7A U8A G9A U10G U11A C12U C13G", "aptazyme ON/OFF ratio": 1.16}
{"variant": "U7A U8A G9A U10G U11A C12U C13A", "aptazyme ON/OFF ratio": 1.13}
{"variant": "U7A U8A G9A U10G U11A C12U C13U", "aptazyme ON/OFF ratio": 1.1}
{"variant": "U7A U8A G9A U10C", "aptazyme ON/OFF ratio": 1.52}
{"variant": "U7A U8A G9A U10A", "aptazyme ON/OFF ratio": 1.46}
{"variant": "U7A U8A G9A U10G", "aptazyme ON/OFF ratio": 1.31}
{"variant": "U7A U8A G9A U10C U11G C12A C13G", "aptazyme ON/OFF ratio": 1.09}
{"variant": "U7A U8A G9A U10C U11G C12A C13U", "aptazyme ON/OFF ratio": 1.12}
{"variant": "U7A U8A G9A U10C U11G C12A C13A", "aptazyme ON/OFF ratio": 1.09}
{"variant": "U7A U8A G9A U10A C12U", "aptazyme ON/OFF ratio": 1.23}
{"variant": "U7A U8A G9A U10A C12A", "aptazyme ON/OFF ratio": 1.28}
{"variant": "U7A U8A G9A U10A C12G", "aptazyme ON/OFF ratio": 1.24}
{"variant": "U7A G9U U10G U11G C13U", "aptazyme ON/OFF ratio": 1.11}
{"variant": "U7A G9U U10G U11G C13G", "aptazyme ON/OFF ratio": 1.17}
